Measured values published in paper doi:10.1101/2024.06.07.597859 (bioRxiv, 2024).
Several values for one entry are separate records, joined by “and”; a condition that tells them apart may be missing. Equal values may be shown once.

Target: the molecule itself
Experiment: cross-linking

B1: Plasmodium falciparum tRNA-splicing endonuclease PfTSEN1 (enzyme, UniProt A0A144A1E9 1-220, looked up)
chain: MKIIYEFKKEYYEIILNENNADDNVIDLFEKNTNKCNIEIKPYDDINSDLLDFDQFKMFNIDKDDIKKKNEDKKDEDRIKYILDKESYNNSIDKLNDNSCDESCYITDDELCKQINNPFDNTYNNKFVVKYKEYFEENSFIVKKGDIYGADFLLYITEQKYAHSLYAVYIIYKHYILRDLIRILRVSHSIKKKVILILWNELNCFNISDTLVYIKSYKYK
B1 was tested, and the “stoichiometry N” value was 2 and 3 and 4.
